Test results taken from the supplement of paper PMC10567573.

B1: PTPN9 (parent)
chain: ILFSLPPALDWDSVHVPGPHAMTI

Variants of: B1
Assay: protein stability index of a GFP-peptide fusion (GPS, HEK-293T) (PSI 1-6); higher = more stable
Details: c terminus: a fixed tail appended
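Further: lentivirally expressed fusions sorted by FACS into six bins by GFP to DsRed ratio, PSI derived from sequencing read proportions per bin multiplied by bin number.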

In order of rising protein stability index:
1. ILFSLPPALDEDSVHVPGPHAMTI [W11E]  1.57
2. ILFSLPPALDWDSVHVPKPHAMTI [G18K]  1.61
3. ILFSLPPALEWDSVHVPGPHAMTI [D10E]  1.63
4. ILFSLPPALNWDSVHVPGPHAMTI [D10N]  1.73
5. ILFSLPPALDDDSVHVPGPHAMTI [W11D]  1.75
6. ILFSLPPADDWDSVHVPGPHAMTI [L9D]  1.83
7. ILFSLPPALDWDSVHVPDPHAMTI [G18D]  1.85
8. ILFSLPPALDWDSVHVPCPHAMTI [G18C]  1.85
9. ILFSLPPALDWQSVHVPGPHAMTI [D12Q]  1.88
10. ILFSLPPALDWDSVHVPGTHAMTI [P19T]  1.89
11. ILFSLPPALDSDSVHVPGPHAMTI [W11S]  1.9
12. ILFSLPPALWWDSVHVPGPHAMTI [D10W]  1.9
13. ILFSLPPDLDWDSVHVPGPHAMTI [A8D]  1.92
14. ILFSLPPAEDWDSVHVPGPHAMTI [L9E]  1.93
15. ILFSLPPAIDWDSVHVPGPHAMTI [L9I]  1.96
16. ILFSLPPALDWGSVHVPGPHAMTI [D12G]  1.97
17. ILFSLPPALDHDSVHVPGPHAMTI [W11H]  2
18. ILFSLPPALDWDSVHVPGKHAMTI [P19K]  2.02
19. ILFSLPPALVWDSVHVPGPHAMTI [D10V]  2.05
20. ILFSLPPALDWHSVHVPGPHAMTI [D12H]  2.07
21. ILFSLPPARDWDSVHVPGPHAMTI [L9R]  2.07
22. ILFSLPPALDWDSVHVPGDHAMTI [P19D]  2.1
23. ILFSLPPALDRDSVHVPGPHAMTI [W11R]  2.11
24. ILFSLPPALDWDSVHVPEPHAMTI [G18E]  2.12
25. ILFSLPPALDWDSVHVPGWHAMTI [P19W]  2.19
26. ILFSLPPALDWDSVHVPRPHAMTI [G18R]  2.19
27. ILFSLPPALIWDSVHVPGPHAMTI [D10I]  2.2
28. ILFSLPPALLWDSVHVPGPHAMTI [D10L]  2.22
29. ILFSLPPALDTDSVHVPGPHAMTI [W11T]  2.23
30. ILFSLPPALDGDSVHVPGPHAMTI [W11G]  2.23
31. ILFSLPPALDNDSVHVPGPHAMTI [W11N]  2.26
32. ILFSLPPALDQDSVHVPGPHAMTI [W11Q]  2.27
33. ILFSLPPALGWDSVHVPGPHAMTI [D10G]  2.28
34. ILFSLPPAADWDSVHVPGPHAMTI [L9A]  2.29
35. ILFSLPPAFDWDSVHVPGPHAMTI [L9F]  2.33
36. ILFSLPPALDWDSVHVPGEHAMTI [P19E]  2.35
37. ILFSLPPALDWDSVHVPVPHAMTI [G18V]  2.36
38. ILFSLPPALDWDSVHVPGIHAMTI [P19I]  2.37
39. ILFSLPPALDWTSVHVPGPHAMTI [D12T]  2.37
40. ILFSLPPALDVDSVHVPGPHAMTI [W11V]  2.38
41. ILFSLPPALDWDSVHVPSPHAMTI [G18S]  2.4
42. ILFSLPPALDPDSVHVPGPHAMTI [W11P]  2.41
43. ILFSLPPALDWDSVHVPGLHAMTI [P19L]  2.44
44. ILFSLPPALDWDSVHVPGHHAMTI [P19H]  2.46
45. ILFSLPPALDWDSVHVPGSHAMTI [P19S]  2.48
46. ILFSLPPALDWDSVHVPMPHAMTI [G18M]  2.48
47. ILFSLPPALDWNSVHVPGPHAMTI [D12N]  2.5
48. ILFSLPPACDWDSVHVPGPHAMTI [L9C]  2.52
49. ILFSLPPAMDWDSVHVPGPHAMTI [L9M]  2.52
50. ILFSLPPALDWDSVHVPGQHAMTI [P19Q]  2.55
51. ILFSLPPAKDWDSVHVPGPHAMTI [L9K]  2.63
52. ILFSLPPALDWDSVHVPGRHAMTI [P19R]  2.65
53. ILFSLPPALFWDSVHVPGPHAMTI [D10F]  2.68
54. ILFSLPPALDWDSVHVPHPHAMTI [G18H]  2.69
55. ILFSLPPALDLDSVHVPGPHAMTI [W11L]  2.72
56. ILFSLPPALDMDSVHVPGPHAMTI [W11M]  2.73
57. ILFSLPPALDWCSVHVPGPHAMTI [D12C]  2.75
58. ILFSLPPALDWDSVHVPNPHAMTI [G18N]  2.76
59. ILFSLPPALDWDSVHVPGMHAMTI [P19M]  2.77
60. ILFSLPPALDWDSVHVPGAHAMTI [P19A]  2.77
61. ILFSLPPALDWWSVHVPGPHAMTI [D12W]  2.79
62. ILFSLPPANDWDSVHVPGPHAMTI [L9N]  2.8
63. ILFSLPPALAWDSVHVPGPHAMTI [D10A]  2.86
64. ILFSLPPALDWMSVHVPGPHAMTI [D12M]  2.88
65. ILFSLPPALDWDSVHVPGNHAMTI [P19N]  2.89
66. ILFSLPPALDWDSVHVPGCHAMTI [P19C]  2.95
67. ILFSLPPALTWDSVHVPGPHAMTI [D10T]  2.95
68. ILFSLPPALDWDSVHVPGGHAMTI [P19G]  2.97
69. ILFSLPPALDYDSVHVPGPHAMTI [W11Y]  3.05
70. ILFSLPPASDWDSVHVPGPHAMTI [L9S]  3.08
71. ILFSLPPALDWDSVHVPGYHAMTI [P19Y]  3.1
72. ILFSLPPALDFDSVHVPGPHAMTI [W11F]  3.1
73. ILFSLPPATDWDSVHVPGPHAMTI [L9T]  3.24
74. ILFSLPPALDWSSVHVPGPHAMTI [D12S]  3.29
75. ILFSLPPALDWDSVHVPIPHAMTI [G18I]  3.29
76. ILFSLPPALDWDSVHVPWPHAMTI [G18W]  3.41
77. ILFSLPPFLDWDSVHVPGPHAMTI [A8F]  3.41
78. ILFSLPPALMWDSVHVPGPHAMTI [D10M]  3.42
79. ILFSLPPALDADSVHVPGPHAMTI [W11A]  3.48
80. ILFSLPPALDIDSVHVPGPHAMTI [W11I]  3.5
81. ILFSLPPALDWDSVHVPGVHAMTI [P19V]  3.51
82. ILFSLPPALDWDSVHVPQPHAMTI [G18Q]  3.62
83. ILFSLPPALDWASVHVPGPHAMTI [D12A]  3.66
84. ILFSLPPALDCDSVHVPGPHAMTI [W11C]  3.67
85. ILFSLPPALKWDSVHVPGPHAMTI [D10K]  3.67
86. ILFSLPPAGDWDSVHVPGPHAMTI [L9G]  3.71
87. ILFSLPPALHWDSVHVPGPHAMTI [D10H]  3.79
88. ILFSLPPALDWDSVHVPAPHAMTI [G18A]  3.84
89. ILFSLPPALDWDSVHVPGFHAMTI [P19F]  3.89
90. ILFSLPPAYDWDSVHVPGPHAMTI [L9Y]  4.25
91. ILFSLPPAWDWDSVHVPGPHAMTI [L9W]  4.62
92. ILFSLPPALDWISVHVPGPHAMTI [D12I]  4.7
93. ILFSLPPALDWDSVHVPLPHAMTI [G18L]  4.77
94. ILFSLPPALDWPSVHVPGPHAMTI [D12P]  4.93
